The text below walks through data of paper doi:10.1101/2024.05.05.592584 (bioRxiv, 2024).

Targets include SARS-CoV-2 BA.4/BA.5 RBD (SARS-CoV-2 Omicron BA.4/BA.5, strain); SARS-CoV-2 XBB.1.5 RBD (SARS-CoV-2 Omicron XBB.1.5, strain); SARS-CoV-2 EG.5.1 RBD (SARS-CoV-2 Omicron EG.5.1, strain); SARS-CoV-2 HV.1 RBD (SARS-CoV-2 Omicron HV.1, strain).
Holding throughout (experiment): BLI
What all share (conditions): both partners purified

The target of assay [1] is T1, SARS-CoV-2 B.1.617.2 (Delta) NTD (SARS-CoV-2 B.1.617.2 (Delta), strain).
T1 chain: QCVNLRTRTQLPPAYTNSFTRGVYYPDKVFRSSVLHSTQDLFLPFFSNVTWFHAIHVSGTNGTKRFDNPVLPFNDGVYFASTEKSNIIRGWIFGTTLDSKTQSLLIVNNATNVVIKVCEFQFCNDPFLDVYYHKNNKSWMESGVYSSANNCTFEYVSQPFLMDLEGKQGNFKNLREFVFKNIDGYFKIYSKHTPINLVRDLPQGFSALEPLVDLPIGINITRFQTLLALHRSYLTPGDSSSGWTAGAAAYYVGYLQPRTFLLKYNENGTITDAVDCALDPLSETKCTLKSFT

Assay [2] deals with T2, SARS-CoV-2 P.1 (Gamma) NTD (SARS-CoV-2 P.1 (Gamma), strain).
T2 chain: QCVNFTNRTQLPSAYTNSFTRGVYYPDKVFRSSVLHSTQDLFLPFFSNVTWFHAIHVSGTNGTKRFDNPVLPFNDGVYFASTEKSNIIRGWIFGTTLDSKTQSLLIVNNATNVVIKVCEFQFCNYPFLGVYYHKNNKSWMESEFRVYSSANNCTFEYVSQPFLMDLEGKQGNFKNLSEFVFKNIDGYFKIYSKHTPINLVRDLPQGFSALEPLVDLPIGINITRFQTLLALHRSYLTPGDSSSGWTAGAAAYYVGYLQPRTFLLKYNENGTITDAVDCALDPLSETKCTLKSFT

The target in another assay is T3, SARS-CoV-2 BA.1 NTD (SARS-CoV-2 Omicron BA.1, strain).
T3 chain: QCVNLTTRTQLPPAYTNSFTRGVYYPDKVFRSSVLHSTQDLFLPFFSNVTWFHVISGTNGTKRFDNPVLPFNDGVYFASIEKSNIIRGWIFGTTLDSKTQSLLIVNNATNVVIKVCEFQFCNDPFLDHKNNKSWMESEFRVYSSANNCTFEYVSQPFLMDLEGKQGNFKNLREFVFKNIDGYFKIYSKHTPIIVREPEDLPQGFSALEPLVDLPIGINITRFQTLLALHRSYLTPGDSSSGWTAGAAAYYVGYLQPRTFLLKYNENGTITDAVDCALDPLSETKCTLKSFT

A further assay concerns the target T4, SARS-CoV-2 BA.2 NTD (SARS-CoV-2 Omicron BA.2, strain).
T4 chain: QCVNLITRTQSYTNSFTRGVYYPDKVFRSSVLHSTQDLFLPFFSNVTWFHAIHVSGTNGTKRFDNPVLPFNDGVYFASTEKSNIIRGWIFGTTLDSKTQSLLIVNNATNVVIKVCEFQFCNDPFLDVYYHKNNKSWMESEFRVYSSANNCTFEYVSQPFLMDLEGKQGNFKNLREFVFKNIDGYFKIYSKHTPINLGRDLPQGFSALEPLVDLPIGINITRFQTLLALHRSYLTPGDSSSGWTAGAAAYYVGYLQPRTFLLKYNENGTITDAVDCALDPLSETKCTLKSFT

The target in another assay is T5, SARS-CoV-2 BA.2.75.2 NTD (SARS-CoV-2 Omicron BA.2.75.2, strain).
T5 chain: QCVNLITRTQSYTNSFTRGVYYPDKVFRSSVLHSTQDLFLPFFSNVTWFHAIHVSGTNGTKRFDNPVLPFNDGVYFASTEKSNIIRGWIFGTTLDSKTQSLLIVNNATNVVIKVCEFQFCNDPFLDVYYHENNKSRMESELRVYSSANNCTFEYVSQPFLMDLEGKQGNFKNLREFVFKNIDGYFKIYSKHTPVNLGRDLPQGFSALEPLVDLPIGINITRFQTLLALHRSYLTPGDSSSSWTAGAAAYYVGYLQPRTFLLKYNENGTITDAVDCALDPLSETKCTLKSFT

The target of a further assay is T6, SARS-CoV-2 BA.4/BA.5 NTD (SARS-CoV-2 Omicron BA.4/BA.5, strain).
T6 chain: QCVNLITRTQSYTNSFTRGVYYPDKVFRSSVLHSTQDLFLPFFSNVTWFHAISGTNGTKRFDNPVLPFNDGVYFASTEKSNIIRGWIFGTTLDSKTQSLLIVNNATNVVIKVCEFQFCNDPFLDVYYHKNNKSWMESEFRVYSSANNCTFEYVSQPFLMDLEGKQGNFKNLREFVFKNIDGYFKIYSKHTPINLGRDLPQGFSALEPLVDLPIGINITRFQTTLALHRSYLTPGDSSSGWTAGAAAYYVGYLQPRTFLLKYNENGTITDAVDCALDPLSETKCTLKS

The target of another assay is T7, SARS-CoV-2 XBB.1.5 NTD (SARS-CoV-2 Omicron XBB.1.5, strain).
T7 chain: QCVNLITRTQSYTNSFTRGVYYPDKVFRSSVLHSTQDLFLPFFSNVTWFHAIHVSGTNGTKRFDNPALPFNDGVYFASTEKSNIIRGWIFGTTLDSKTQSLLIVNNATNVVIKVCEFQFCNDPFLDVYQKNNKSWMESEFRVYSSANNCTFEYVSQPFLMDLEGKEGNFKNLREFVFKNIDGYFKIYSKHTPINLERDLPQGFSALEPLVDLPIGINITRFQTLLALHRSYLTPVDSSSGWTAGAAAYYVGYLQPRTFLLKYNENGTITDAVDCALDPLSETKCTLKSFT

The target in another assay is T8, SARS-CoV-2 XBB.1.16 NTD (SARS-CoV-2 Omicron XBB.1.16, strain).
T8 chain: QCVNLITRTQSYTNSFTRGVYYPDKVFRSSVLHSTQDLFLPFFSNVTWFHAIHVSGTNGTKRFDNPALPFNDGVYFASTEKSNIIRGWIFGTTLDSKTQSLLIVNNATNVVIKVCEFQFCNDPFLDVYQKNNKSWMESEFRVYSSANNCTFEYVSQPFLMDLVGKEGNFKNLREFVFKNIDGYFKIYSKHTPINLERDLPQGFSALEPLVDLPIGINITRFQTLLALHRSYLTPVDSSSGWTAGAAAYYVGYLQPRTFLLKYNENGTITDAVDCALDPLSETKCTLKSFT

The target of a further assay is T9, SARS-CoV-2 EG.5.1 NTD (SARS-CoV-2 Omicron EG.5.1, strain).
T9 chain: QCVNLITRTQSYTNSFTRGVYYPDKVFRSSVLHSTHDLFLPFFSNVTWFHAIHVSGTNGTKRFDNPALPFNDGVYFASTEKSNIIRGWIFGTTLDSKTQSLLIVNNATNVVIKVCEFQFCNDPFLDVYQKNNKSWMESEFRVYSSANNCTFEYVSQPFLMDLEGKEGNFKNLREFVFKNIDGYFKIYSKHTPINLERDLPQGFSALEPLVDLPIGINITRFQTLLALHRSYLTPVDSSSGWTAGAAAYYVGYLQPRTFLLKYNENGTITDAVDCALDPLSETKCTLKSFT

B1: C1596 IgG (antibody, V domains shown)
VH: QVQLVQSGAEVKKPGSSVKVSCKASGGTFINYAVTWVRQAPGQGLEWMGGIIPILGIPNYAQKFQGRVTITADKSTSTAYMELSSLRSEDTAVYYCARVPQAGAAQGHYYYYYGMDVWGQGTTVTVSS
VL: not shown
notes: copies: 2 + 2
Take B1: the Kd was 124 nM in assay [1]; 282 nM in [2]; 88.2 nM with SARS-CoV-2 BA.1 NTD; 685 nM with SARS-CoV-2 BA.2 NTD; 607 nM with SARS-CoV-2 BA.2.75.2 NTD; 674 nM with SARS-CoV-2 BA.4/BA.5 NTD. The Kd came to 529 nM with SARS-CoV-2 XBB.1.5 NTD, 591 nM with SARS-CoV-2 XBB.1.16 NTD and 410 nM in the assay with SARS-CoV-2 EG.5.1 NTD.

B2: C952 IgG (antibody, V domains shown)
VH: EVQLVQSGAEVKKPGESLTISCKDSGNSFTIYWIGWVRQMPGKGLEWMGMIYPGDSGTRYSPSFEGQVTISADESINTAYLQWRSLKASDTAMYYCVRGIAVDWYFDLWGRGTLVTVSS
VL: QSVLTQPPSVSGAPGQRVTISCTGSSSNIGAGFDVHWYQQLPGTAPKLLIYGNNNRPSGVPDRFSGSKSATSASLAITGLQAEDEADYYCQSSDSSLSGLYVFGTGTNVIVL
notes: copies: 2 + 2
With B2, the Kd was determined as 8.22 nM with SARS-CoV-2 BA.4/BA.5 RBD, 99.3 nM with SARS-CoV-2 XBB.1.5 RBD, 180000 nM with SARS-CoV-2 EG.5.1 RBD and 939000 nM in the assay with SARS-CoV-2 HV.1 RBD. For the same molecule, the koff with SARS-CoV-2 BA.4/BA.5 RBD came to 0.00358 s⁻¹; with SARS-CoV-2 XBB.1.5 RBD, 0.0046 s⁻¹; with SARS-CoV-2 EG.5.1 RBD, 0.289 s⁻¹; with SARS-CoV-2 HV.1 RBD, 0.037 s⁻¹. For the same molecule, the kon was 435000 M⁻¹ s⁻¹ with SARS-CoV-2 BA.4/BA.5 RBD, 46300 M⁻¹ s⁻¹ with SARS-CoV-2 XBB.1.5 RBD, 1600 M⁻¹ s⁻¹ in the assay with SARS-CoV-2 EG.5.1 RBD and 39.4 M⁻¹ s⁻¹ in the assay with SARS-CoV-2 HV.1 RBD.

B3: C1520 IgG (antibody, V domains shown)
VH: EVQLVESGGGLVQPGGSLRLACVASGFTFSIYEMNWVRQAPGKGLEWVSYITTSGHARYNADSVKGRFTISRDNSKNSFYLQMNSLRAEDTAIYYCARPQYHYYDTSTYHSYGFDIWGQGTMVTVSS
VL: QLVLTQSPSASASLGASVNLTCTLSSGHNSYAIAWHQQQPEKGPRYLMSLNSDGSHTKGDGIPDRFSGSSSGAERFLTISSLQSEDEADYYCQTWDTGIRVFGGGTRLTVL
notes: copies: 2 + 2
Regarding B3, the Kd in assay [1] was found to be 47 nM; in assay [2], 230 nM; in the assay with SARS-CoV-2 BA.1 NTD, 118 nM; with SARS-CoV-2 BA.2 NTD it was 14.3 nM; in the assay with SARS-CoV-2 BA.2.75.2 NTD, 185 nM; in the assay with SARS-CoV-2 BA.4/BA.5 NTD, 11.4 nM. Moreover, the koff in assay [1] turned out to be 0.00141 s⁻¹; in assay [2] it was 0.00301 s⁻¹; with SARS-CoV-2 BA.1 NTD, 0.00418 s⁻¹; with SARS-CoV-2 BA.2 NTD it was 0.000514 s⁻¹; in the assay with SARS-CoV-2 BA.2.75.2 NTD, 0.00569 s⁻¹; with SARS-CoV-2 BA.4/BA.5 NTD, 0.000528 s⁻¹. Moreover, the kon is 30000 M⁻¹ s⁻¹ in assay [1]; 13100 M⁻¹ s⁻¹ in [2]; 35500 M⁻¹ s⁻¹ with SARS-CoV-2 BA.1 NTD; 36000 M⁻¹ s⁻¹ with SARS-CoV-2 BA.2 NTD; 30700 M⁻¹ s⁻¹ with SARS-CoV-2 BA.2.75.2 NTD; 46300 M⁻¹ s⁻¹ with SARS-CoV-2 BA.4/BA.5 NTD.

B4: C1533 IgG (antibody, V domains shown)
VH: QVQLVQSGAEVKKPGSSVKVSCKTSGVIFSRNAFSWVRQAPGQGLEWMGRIIPFLDVTNSAQEFQGRVTLNADKSTSTVYMELSSLRSEDTAIYYCARHNGDPYDFWSGYNTWAGGLDVWGQGTTVTVSS
VL: QSVLTQPPSASGTPGQRVTISCSGSGSNIGSNAVNWYQQLPGTAPKLLIYNQNQRPSGVPDRFSGSKSGTSASLAIGGLQSEDEADYYCATWDDNLSGLVFGGGTKLTVL
notes: copies: 2 + 2
In [2], B4 yielded a Kd of 24.9 nM, a dissociation rate constant (koff) of 0.00107 s⁻¹ and a kon of 43100 M⁻¹ s⁻¹.
